# T1: mCherry-JUND (UniProt P17535 1-347)
# T1 construct: JUND; the construct is not described in the methods; also called JunD Proto-Oncogene; source: HeLa, transfected, in lysate
# T1 sequence (looked up): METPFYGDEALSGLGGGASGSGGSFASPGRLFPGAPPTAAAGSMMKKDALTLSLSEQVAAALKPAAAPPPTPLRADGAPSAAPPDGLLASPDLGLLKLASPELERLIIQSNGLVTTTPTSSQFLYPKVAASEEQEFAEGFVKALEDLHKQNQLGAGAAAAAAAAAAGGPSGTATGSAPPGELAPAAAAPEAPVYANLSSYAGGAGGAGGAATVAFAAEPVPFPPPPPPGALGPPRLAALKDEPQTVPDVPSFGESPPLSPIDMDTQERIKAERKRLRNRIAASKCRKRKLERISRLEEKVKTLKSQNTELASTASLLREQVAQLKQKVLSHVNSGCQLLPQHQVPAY
# T2: mCherry-BARD1 (UniProt Q99728 1-777)
# T2 construct: also called BRCA1 Associated RING Domain 1; source: HeLa, transfected, in live cells and in lysate
# T2 sequence (looked up): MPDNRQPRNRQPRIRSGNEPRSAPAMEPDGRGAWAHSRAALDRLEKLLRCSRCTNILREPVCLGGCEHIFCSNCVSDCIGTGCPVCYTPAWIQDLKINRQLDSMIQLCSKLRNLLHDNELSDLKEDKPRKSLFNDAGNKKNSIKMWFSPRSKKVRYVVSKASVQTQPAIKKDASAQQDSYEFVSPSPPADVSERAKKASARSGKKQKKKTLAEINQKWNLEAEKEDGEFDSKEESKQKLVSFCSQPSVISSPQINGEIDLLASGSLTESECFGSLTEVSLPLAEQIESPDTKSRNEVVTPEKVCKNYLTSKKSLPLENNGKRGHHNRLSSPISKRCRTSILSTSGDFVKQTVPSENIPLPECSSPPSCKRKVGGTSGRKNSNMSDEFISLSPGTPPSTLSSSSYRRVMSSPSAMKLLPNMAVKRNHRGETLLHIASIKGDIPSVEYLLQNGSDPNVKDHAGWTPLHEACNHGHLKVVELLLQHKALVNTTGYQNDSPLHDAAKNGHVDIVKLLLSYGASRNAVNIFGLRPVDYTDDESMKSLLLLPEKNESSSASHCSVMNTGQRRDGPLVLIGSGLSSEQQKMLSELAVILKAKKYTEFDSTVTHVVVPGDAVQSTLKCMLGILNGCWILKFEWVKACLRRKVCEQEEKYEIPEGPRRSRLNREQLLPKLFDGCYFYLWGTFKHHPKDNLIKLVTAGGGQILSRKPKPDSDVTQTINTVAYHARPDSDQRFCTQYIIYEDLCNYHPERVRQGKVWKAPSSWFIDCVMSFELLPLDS
# Legend:
# mCherry-JUND = target: T1, mCherry-JUND; assay: fluorescence cross-correlation spectroscopy (FCCS); lysate of co-transfected HeLa cells; 20 mM Tris-HCl pH 7.5, 140 mM KCl, 1.5 mM MgCl2, 1 mM DTT, 0.5% NP-40; lysed at room temperature; cross-correlation/autocorrelation ratio; conditions: partners not purified
# mCherry-BARD1 = target: T2, mCherry-BARD1; assay: as above; conditions: partners not purified
binder,measurement,setting,value
"GFP-Menin (natural protein, UniProt O00255 1-610, looked up, Menin (MEN1); the construct and its isoform are not described in the methods; also called MEN1 factor Menin; source: HeLa, transfected, in lysate) MGLKAAQKTLFPLRSIDDVVRLFAAELGREEPDLVLLSLVLGFVEHFLAVNRVIPTNVPELTFQPSPAPDPPGGLTYFPVADLSIIAALYARFTAQIRGAVDLSLYPREGGVSSRELVKKVSDVIWNSLSRSYFKDRAHIQSLFSFITGTKLDSSGVAFAVVGACQALGLRDVHLALSEDHAWVVFGPNGEQTAEVTWHGKGNEDRRGQTVNAGVAERSWLYLKGSYMRCDRKMEVAFMVCAINPSIDLHTDSLELLQLQQKLLWLLYDLGHLERYPMALGNLADLEELEPTPGRPDPLTLYHKGIASAKTYYRDEHIYPYMYLAGYHCRNRNVREALQAWADTATVIQDYNYCREDEEIYKEFFEVANDVIPNLLKEAASLLEAGEERPGEQSQGTQSQGSALQDPECFAHLLRFYDGICKWEEGSPTPVLHVGWATFLVQSLGRFEGQVRQKVRIVSREAEAAEAEEPWGEEAREGRRRGPRRESKPEEPPPPKKPALDKGLGTGQGAVSGPPRKPPGTVAGTARGPEGGSTAQVPAPTASPPPEGPVLTFQSEKMKGMKELLVATKINSSAIKLQLTAQSQVQMKKQKVSTPSDYTLSFLKRQRKGL",cross-correlation,mCherry-JUND,21%
"GFP-Menin A237V (natural protein, UniProt O00255 1-610, looked up, Menin (MEN1) with the variant; construct and isoform not described; source: HeLa, transfected, in lysate) MGLKAAQKTLFPLRSIDDVVRLFAAELGREEPDLVLLSLVLGFVEHFLAVNRVIPTNVPELTFQPSPAPDPPGGLTYFPVADLSIIAALYARFTAQIRGAVDLSLYPREGGVSSRELVKKVSDVIWNSLSRSYFKDRAHIQSLFSFITGTKLDSSGVAFAVVGACQALGLRDVHLALSEDHAWVVFGPNGEQTAEVTWHGKGNEDRRGQTVNAGVAERSWLYLKGSYMRCDRKMEVVFMVCAINPSIDLHTDSLELLQLQQKLLWLLYDLGHLERYPMALGNLADLEELEPTPGRPDPLTLYHKGIASAKTYYRDEHIYPYMYLAGYHCRNRNVREALQAWADTATVIQDYNYCREDEEIYKEFFEVANDVIPNLLKEAASLLEAGEERPGEQSQGTQSQGSALQDPECFAHLLRFYDGICKWEEGSPTPVLHVGWATFLVQSLGRFEGQVRQKVRIVSREAEAAEAEEPWGEEAREGRRRGPRRESKPEEPPPPKKPALDKGLGTGQGAVSGPPRKPPGTVAGTARGPEGGSTAQVPAPTASPPPEGPVLTFQSEKMKGMKELLVATKINSSAIKLQLTAQSQVQMKKQKVSTPSDYTLSFLKRQRKGL",binding relative to wild type,mCherry-JUND,~50%
"GFP-Menin A242V (natural protein, UniProt O00255 1-610, looked up, Menin (MEN1) with the variant; construct and isoform not described; source: HeLa, transfected, in lysate) MGLKAAQKTLFPLRSIDDVVRLFAAELGREEPDLVLLSLVLGFVEHFLAVNRVIPTNVPELTFQPSPAPDPPGGLTYFPVADLSIIAALYARFTAQIRGAVDLSLYPREGGVSSRELVKKVSDVIWNSLSRSYFKDRAHIQSLFSFITGTKLDSSGVAFAVVGACQALGLRDVHLALSEDHAWVVFGPNGEQTAEVTWHGKGNEDRRGQTVNAGVAERSWLYLKGSYMRCDRKMEVAFMVCVINPSIDLHTDSLELLQLQQKLLWLLYDLGHLERYPMALGNLADLEELEPTPGRPDPLTLYHKGIASAKTYYRDEHIYPYMYLAGYHCRNRNVREALQAWADTATVIQDYNYCREDEEIYKEFFEVANDVIPNLLKEAASLLEAGEERPGEQSQGTQSQGSALQDPECFAHLLRFYDGICKWEEGSPTPVLHVGWATFLVQSLGRFEGQVRQKVRIVSREAEAAEAEEPWGEEAREGRRRGPRRESKPEEPPPPKKPALDKGLGTGQGAVSGPPRKPPGTVAGTARGPEGGSTAQVPAPTASPPPEGPVLTFQSEKMKGMKELLVATKINSSAIKLQLTAQSQVQMKKQKVSTPSDYTLSFLKRQRKGL",binding relative to wild type,mCherry-JUND,~50%
"GFP-RING (isolated BRCA1 RING domain, wild-type) (domain or fragment, UniProt P38398 1-109, looked up, BRCA1 amino acids 1-109 cloned into pEGFP-C1; also called EGFP-tagged RING trimmed domain; wild-type RING; source: HeLa, transfected, in lysate) MDLSALRVEEVQNVINAMQKILECPICLELIKEPVSTKCDHIFCKFCMLKLLNQKKGPSQCPLCKNDITKRSLQESTRFSQLVEELLKIICAFQLDTGLEYANSYNFAK",cross-correlation,mCherry-BARD1,25%
"GFP-RING-T37R (domain or fragment, UniProt P38398 1-109, looked up, BRCA1 amino acids 1-109 with the variant; also called p.Thr37Arg; source: HeLa, transfected, in lysate) MDLSALRVEEVQNVINAMQKILECPICLELIKEPVSRKCDHIFCKFCMLKLLNQKKGPSQCPLCKNDITKRSLQESTRFSQLVEELLKIICAFQLDTGLEYANSYNFAK",reduction in binding relative to wild type,mCherry-BARD1,30%
"GFP-RING D67Y (domain or fragment, UniProt P38398 1-109, looked up, BRCA1 amino acids 1-109 with the variant; also called D67Y variant (isolated RING domain); source: HeLa, transfected, in lysate) MDLSALRVEEVQNVINAMQKILECPICLELIKEPVSTKCDHIFCKFCMLKLLNQKKGPSQCPLCKNYITKRSLQESTRFSQLVEELLKIICAFQLDTGLEYANSYNFAK",reduction in binding relative to wild type,mCherry-BARD1,22%
"GFP-RING-T37K (domain or fragment, UniProt P38398 1-109, looked up, BRCA1 amino acids 1-109 with the variant; source: HeLa, transfected, in lysate) MDLSALRVEEVQNVINAMQKILECPICLELIKEPVSKKCDHIFCKFCMLKLLNQKKGPSQCPLCKNDITKRSLQESTRFSQLVEELLKIICAFQLDTGLEYANSYNFAK",reduction in binding relative to wild type,mCherry-BARD1,20%
